From publication doi:10.1101/521658v1

Experiments:
[1] = substrate: NC(=O)c1ccc[n+]([C@@H]2O[C@H](COP(=O)(O)OP(=O)(O)OC[C@H]3O[C@@H](n4cnc5c(N)ncnc54)[C@H](O)[C@@H]3O)[C@@H](O)[C@H]2O)c1; experiment: purified protein, by the assay type; details: pH 7.8
[2] = substrate: Nc1ncnc2c1ncn2[C@@H]1O[C@H](COP(=O)(O)OP(=O)(O)OP(=O)(O)O)[C@@H](O)[C@H]1O; experiment: purified protein, by the assay type; details: pH 7.8

B1: 6HIS-Δ38NADKc-1 (with AtCaM1/Ca^2+) (Arabidopsis thaliana) (protein)
chain: AGELLLRRRKLDQGASMGYKDVKIAPLIERKDSGRRSNLERFSHYVARQLGFEDPNEYPQLCKLANGYLLKTKGYDENVDEYLENEAERDSLYVHLLEEFDRCILTYFSFNWTQSSNLISQALSDESDQKVPKLKDFVMAATRKQRFERVTKDLKVKRVISTLVEEMRVIGSGSSEPHCTEVMSPVAHNKRSPVLLLMGGGMGAGKSTVLKDIFLESFWSEAQADAVVIEADAFKETDVIYRALSSRGHHDDMLQTAELVHQSSTDAASSLLVTALNDGRDVIMDGTLSWEPFVEQMIEMARNVHKQKYRMGEGYKVSEEGTITEKYWEEEEEETKENGKQQNLKPYRIELVGVVCDAYLAVARGIRRALMVKRAVRVKPQLNSHKRFANAFPKYCELVDNARLYCTNAVGGPPRLIAWKDGNSKLLVDPEDIDCLKRVSSLNPDAESIYELYPDPSQLSKPGSVWNDVVLVPSRPKVQKELSDAIRRIEKAQPKN
Km [1]: 147 (±17) uM
kcat [1]: 42 ± 2 s⁻¹
kcat/Km [1]: 280000 M⁻¹ s⁻¹
Km [2]: 203(±30) uM
kcat [2]: 41 ± 2 s⁻¹
kcat/Km [2]: 200000 M⁻¹ s⁻¹
